The chains are these.
T1: murine IL-11 (mouse) (UniProt P47873)
T1 sequence (looked up): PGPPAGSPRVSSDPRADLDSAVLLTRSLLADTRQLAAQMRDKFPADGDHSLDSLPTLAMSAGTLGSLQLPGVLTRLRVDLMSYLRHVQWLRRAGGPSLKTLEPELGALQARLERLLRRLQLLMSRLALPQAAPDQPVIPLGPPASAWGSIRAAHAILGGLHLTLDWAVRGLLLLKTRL

B1: YU112-F05 (scFv)
scFv: EVQLVQSGGGVVQPGRSLRLSCAASGFTFGSYGMHWVRQAPGKGLEWVAVISYDGSNKYYADSVKGRFTISRDNSKNTLYLQMNSLRAEDTAVYYCAKIGATDPLDYWGQGTLVTVSSGSASAPKLEEGEFSEARVQSALTQPRSVSGSPGQSVTISCTGTSSDVGGYNYVSWYQQHPGKAPKLIIYDVNNRPSGVSNRFSASKSGNTASLTISGLQAEDEADYYCNSYTSGSTWVFGGGTKLTVL
B2: YU100-A11 (scFv)
scFv: EVQLQQSGGGVVQPGRSLRLSCAASGFTFSSYGMHWVRQAPGKGLEWVAVISYDGSNKYYADSVKGRFTISRDNSKNTLYLQMNSLRAEDTAVYYCAKIGATDPLDYWGQGTLVTVSSGSASAPKLEEGEFSEARVQSALTQPRSVSGSPGQSVTISCTGTSSDVGGYNYVSWYQQHPGKAPKLMIYDVSKRPSGVPDRFSGSKSGNTASLTISGLQAEDEADYYCCSYAGSYTWVFGGGTKLTVL
B3: YU100-E07 (scFv)
scFv: B2 scFv with E1Q, Q6E, K58R, T69A, N169D, K183E, S190T, P197A, S232R
B4: YU100-H02 (scFv)
scFv: QVQLQQSGGGVVQPGRSLRLSCAASGFTFSSYGMHWVRQAPGKGLEWVAVISYDGSNKYYADSVKGRFTISRDNSKNTLYLQMNSLRAEDTAVYYCARIMGYDYGDYDVVDYWGQGTLVTVSSGSASAPKLEEGEFSEARVQSALTQPRSVSRSPGQSVTISCTGTSSDVGTYNYVSWYQQHPGKAPKLMIYDVSKRPSGVPDRFSGSKSGNTASLTISGLQAEDEADYYCCSYAGFYTWVFGGGTKLTVL

Positions count from the first letter of the chain named.

For this assay, the target named is T1, murine IL-11 (mouse). Kind of assay: ELISA binding signal. In general terms: ELISA stands for enzyme-linked immunosorbent assay.
B1 came in with a mIL11 - average signal of 0.601.
Molecule B2 registered a mIL11 - average signal of 0.372.
B3 yielded a mIL11 - average signal of 0.247.
Under B4 stands 0.188.

The values above are taken from patent US20180186871A1.
